According to patent KR20220059924A (dated 2022):

Assays:
마우스 Tie2 단백질 = target: T1, 마우스 Tie2 단백질 (mouse, UniProt Q02858 23-1122); test: flow cytometry, HEK293T cells transfected with mouse Tie2
T1 construct: whole, on cells; also called mouse Tie2

랫 Tie2 단백질 = target: T2, 랫 Tie2 단백질 (rat, UniProt A0ABK0L6J5 19-1116); test: flow cytometry, HEK293T cells transfected with rat Tie2
T2 construct: whole, on cells; also called rat Tie2

개 Tie2 단백질 = target: T3, 개 Tie2 단백질 (dog, UniProt A0A8I3S0B4 27-1128); test: flow cytometry, HEK293T cells transfected with dog Tie2
T3 construct: whole, on cells; also called dog Tie2

Measured: binding result

T1 sequence (Q02858 23-1122): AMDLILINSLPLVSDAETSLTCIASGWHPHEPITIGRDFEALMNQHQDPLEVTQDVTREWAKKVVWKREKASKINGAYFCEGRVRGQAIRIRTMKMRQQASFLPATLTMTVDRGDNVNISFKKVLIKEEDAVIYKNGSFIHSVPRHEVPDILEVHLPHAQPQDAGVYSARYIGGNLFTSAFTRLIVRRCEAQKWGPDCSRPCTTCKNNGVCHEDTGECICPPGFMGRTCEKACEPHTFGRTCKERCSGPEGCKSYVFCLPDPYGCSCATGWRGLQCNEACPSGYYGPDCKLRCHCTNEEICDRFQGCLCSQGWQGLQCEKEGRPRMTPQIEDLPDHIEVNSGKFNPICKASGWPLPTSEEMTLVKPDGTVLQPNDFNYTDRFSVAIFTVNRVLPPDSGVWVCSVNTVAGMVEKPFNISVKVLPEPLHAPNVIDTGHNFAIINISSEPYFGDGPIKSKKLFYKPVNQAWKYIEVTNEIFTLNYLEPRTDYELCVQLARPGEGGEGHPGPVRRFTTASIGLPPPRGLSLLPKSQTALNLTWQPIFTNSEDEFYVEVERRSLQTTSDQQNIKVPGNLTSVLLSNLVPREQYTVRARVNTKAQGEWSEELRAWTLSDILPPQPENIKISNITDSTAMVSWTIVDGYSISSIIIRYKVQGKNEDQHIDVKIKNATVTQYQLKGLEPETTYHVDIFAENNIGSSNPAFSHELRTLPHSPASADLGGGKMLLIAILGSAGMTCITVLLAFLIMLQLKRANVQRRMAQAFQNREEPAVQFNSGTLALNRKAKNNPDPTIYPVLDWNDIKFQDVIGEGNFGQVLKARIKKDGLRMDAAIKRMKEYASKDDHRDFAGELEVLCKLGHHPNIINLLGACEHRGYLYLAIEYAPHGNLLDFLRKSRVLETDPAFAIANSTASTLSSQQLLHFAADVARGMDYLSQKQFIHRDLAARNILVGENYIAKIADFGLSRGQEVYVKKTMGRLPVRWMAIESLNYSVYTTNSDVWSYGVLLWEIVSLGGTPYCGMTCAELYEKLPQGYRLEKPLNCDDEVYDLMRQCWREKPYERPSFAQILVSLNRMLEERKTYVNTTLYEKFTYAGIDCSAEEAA

B1: Ang1mab2-1 (antibody, human IgG1, kappa, V domains shown)
VH: QVQLVESGGGVVQPGRSLRLSCAASGFTFSSYAMHWVRQAPGKGLEWVAVISYDGSNKYYADSVKGRFTISRDNSKNTLYLQMNSLRAEDTAVYYCARQYSGVFEYWGQGTLITVSS
VL: DIQMTQSPDSLAVSLGERATINCKSSQSVLYRSNNRNYLAWYQQKLGQPPQLLIYWASTRESGVPDRFSGSGSGADFTLTISSLQAEDVAVYYCQQYFSIPYTFGQGTKLEIKR
notes: also called 제2 기본 항체
no binding (tested: 5ug/ml): all assays above
